In patent US20050202008A1 (Genentech, published 2005):

T1: TNFR1 immunoadhesin (human, UniProt P19438 30-211, limits assumed)
T1 construct: extracellular domain; also called TNFR1-IgG; TNFR 1-IgG; not shown: hinge and Fc portion of human IgG
T1 sequence (looked up): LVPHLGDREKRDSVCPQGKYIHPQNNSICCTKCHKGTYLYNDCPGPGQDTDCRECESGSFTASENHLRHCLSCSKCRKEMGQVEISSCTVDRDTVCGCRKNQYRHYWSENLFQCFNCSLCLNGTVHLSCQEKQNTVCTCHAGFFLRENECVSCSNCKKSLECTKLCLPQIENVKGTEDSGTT

T2: Apo-3 immunoadhesin (human, UniProt Q93038 25-199)
T2 construct: extracellular domain; also called Apo-3-IgG; DR3; not shown: hinge and Fc portion of human IgG; made as described for TNFR1 in Ashkenazi et al. 1991 (IgG1 from)
T2 sequence (looked up): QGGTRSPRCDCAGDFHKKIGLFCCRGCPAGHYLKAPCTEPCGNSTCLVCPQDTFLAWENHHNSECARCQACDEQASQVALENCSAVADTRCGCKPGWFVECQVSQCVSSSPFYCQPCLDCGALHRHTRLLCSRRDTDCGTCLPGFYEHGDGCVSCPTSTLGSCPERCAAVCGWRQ

T3: DR4 immunoadhesin (human, UniProt O00220 24-239, limits assumed)
T3 construct: extracellular domain; also called DR4-IgG; not shown: hinge and Fc portion of human IgG; made as described for TNFR1 in Ashkenazi et al. 1991 (IgG1 from)
T3 sequence (looked up): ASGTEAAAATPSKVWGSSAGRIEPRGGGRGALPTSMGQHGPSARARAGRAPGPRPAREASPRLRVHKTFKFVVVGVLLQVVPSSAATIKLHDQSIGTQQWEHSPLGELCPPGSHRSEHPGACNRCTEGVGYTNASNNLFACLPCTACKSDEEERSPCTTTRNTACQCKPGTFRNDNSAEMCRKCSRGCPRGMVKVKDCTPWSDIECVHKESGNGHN

T4: TNFR2 immunoadhesin (human, UniProt P20333 23-257, limits assumed)
T4 construct: extracellular domain; also called TNFR2-IgG; not shown: hinge and Fc portion of human IgG; made as described for TNFR1 in Ashkenazi et al. 1991 (IgG1 from)
T4 sequence (looked up): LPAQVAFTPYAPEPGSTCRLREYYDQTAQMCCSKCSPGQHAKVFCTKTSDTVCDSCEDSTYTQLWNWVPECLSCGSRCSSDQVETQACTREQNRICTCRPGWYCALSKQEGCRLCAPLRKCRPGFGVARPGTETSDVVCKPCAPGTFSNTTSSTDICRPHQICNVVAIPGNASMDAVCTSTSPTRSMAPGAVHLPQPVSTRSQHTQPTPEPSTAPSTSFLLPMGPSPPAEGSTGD

B1: full-length PRO175 polypeptide on cells (ligand)
chain: MCLSHLENMPLSHSRTQGAQRSSWKLWLFCSIVMLLFLCSFSWLIFIFLQLETAKEPCMAKFGPLPSKWQMASSEPPCVNKVSDWKLEILQNGLYLIYGQVAPNANYNDVAPFEVRLYKNKDMIQTLTNKSKIQNVGGTYELHVGDTIDLIFNSEHQVLKNNTYWGIILLANPQFIS
notes: Human 293 cells were transiently transfected with full-length PRO175, co-transfected with CD4 for gating; also called PRO175 on transfected 293 cells; PRO175 on HUVEC
B2: CD95 immunoadhesin (Fc fusion, UniProt P25445 26-173, looked up)
chain: QVTDINSKGLELRKTVTTVETQNLEGLHHDGQFCHKPCPPGERKARDCTVNGDEPDCVPCQEGKEYTDKAHFSSKCRRCRLCDEGHGLEVEINCTRTQNTKCRCKPNFFCNSTVCEHCDPCTKCEHGIIKECTLTSNTKCKEEGSRSN
notes: extracellular domain; also called CD95-IgG; Fas-IgG; not shown: hinge and Fc portion of human IgG; made as described for TNFR1 in Ashkenazi et al. 1991 (IgG1 from)
B3: soluble PRO175 polypeptide (PRO175 ECD, E. coli, Met-Gly-His10-enterokinase-site tagged) (ligand)
chain: MGHHHHHHHHHHSSGHIDDDDKHMETAKEPCMAKFGPLPSKWQMASSEPPCVNKVSDWKLEILQNGLYLIYGQVAPNANYNDVAPFEVRLYKNKDMIQTLTNKSKIQNVGGTYELHVGDTIDLIFNSEHQVLKNNTYWGIILLANPQFIS
modifications: labeled with 125I (residues not stated)
notes: also called soluble PRO175 ECD molecule; radioiodinated soluble PRO175 polypeptide
B4: PRO364-IgG (soluble immunoglobulin fusion protein of the PRO364 extracellular domain) (Fc fusion)
chain: QRPTGGPGCGPGRLLLGTGTDARCCRVHTTRCCRDYPGEECCSEWDCMCVQPEFHCGDPCCTTCRHHPCPPGQGVQSQGKFSFGFQCIDCASGTFSGGHEGHCKPWTDCTQFGFLTVFPGNKTHNAVCVPGSPPAE
notes: Expressed in insect cells with Baculovirus; also called PRO364 immunoadhesin; PRO364 ECD C-terminus IgG-Fc tagged form; not shown: IgG-Fc at the C-terminus

Experiments:
TNFR1 immunoadhesin [1] = target: T1, TNFR1 immunoadhesin; experiment: FACS on HUVEC (endogenous PRO175)
Procedure: (§1) The PRO175 polypeptide was identified in a human umbilical vein endothelial cell (HUVEC) library, and the PRO175 polypeptide transcripts are readily detectable in HUVEC by RT-PCR (data not shown). […] HUVEC were purchased from Cell Systems (Kirkland, Wash.) and grown in a 50:50 mix of Ham=s F 12 and Low Glucose DMEM media containing 10% fetal bovine serum, 2 mM L-glutamine, 10 mM Hepes, and 10 ng/ml basic FGF. Cells were FACS sorted with PBS, PRO364-IgG, TNFR1-IgG or Fas-IgG as a primary antibody and goat anti-human F(ab=)₂ conjugated to phycoerythrin (CalTag, Burlingame, Calif.).

[2] = target: B1; experiment: FACS on HUVEC (endogenous PRO175)
Procedure: as §1

Apo-3 immunoadhesin = target: T2, Apo-3 immunoadhesin; experiment: co-precipitation with protein A-sepharose, SDS-PAGE, autoradiography
Procedure: (§2) The soluble PRO175 ECD molecule was abeled with ¹²⁵I, for testing its ability to interact with the PRO364 immunoadhesin. For comparison, immunoadhesin constructs were also made of the following TNF receptor family members: CD95, DR4, DR5, TNFR1, TNFR2, and Apo-3. CD95, DR4, DR5, TNFR1, TNFR2, and Apo-3 immunoadhesins were prepared by fusing each receptor's ECD to the hinge and Fc portion of human IgG, as described previously for TNFR1 [Ashkenazi et al., Proc. Natl. Acad. Sci., 88:10535-10539 (1.991)]. The respective TNF receptor family members are described (and relevant references cited) in the Background of the Invention section.
(§3) For the co-precipitation assay, each immunoadhesin (5 microgram) was incubated with ¹²⁵I-labeled soluble PRO175 polypeptide (I microgram) for 1 hour at 24° C., followed by protein A-sepharose for 30 minutes on ice. The reaction mixtures were spun down and washed several times in PBS, boiled in SDS-PAGE buffer containing 20 mM dithiothreitol and then resolved by SDS-PAGE and autoradiography.

TNFR1 immunoadhesin [3] = target: T1, TNFR1 immunoadhesin; experiment: as above
Procedure: as §2, §3

DR4 immunoadhesin = target: T3, DR4 immunoadhesin; experiment: as above
Procedure: as §2, §3

CD95 immunoadhesin = target: B2; experiment: as above
Procedure: as §2, §3

DR5 immunoadhesin = target: T5, DR5 immunoadhesin (human, UniProt O14763 56-210, limits assumed); experiment: as above
T5 construct: extracellular domain; also called DR5-IgG; Apo-2; not shown: hinge and Fc portion of human IgG; made as described for TNFR1 in Ashkenazi et al. 1991 (IgG1 from)
Procedure: as §2, §3

TNFR2 immunoadhesin = target: T4, TNFR2 immunoadhesin; experiment: as above
Procedure: as §2, §3

[4] = target: B1; experiment: FACS on 293 cells transiently transfected with full-length PRO175
Procedure: In another assay, human 293 cells were transiently transfected with full-length PRO175 and the ability of receptor immunoadhesin constructs for PRO364, TNFR1, HVEM, and DcR1 to bind to those transfected cells was determined by FACS analysis. The 293 cells were maintained in high glucose DMEM media supplemented with 10% fetal bovine serum (FBS), 2 mM glutamine, 100 microgram/ml penicillin, and 100 microgram/ml streptomycin. The transfected cells ([…]) were incubated for 60 minutes at 4° C. in 200 microliters 2% FBS/PBS with 1 microgram of the respective receptor or ligand immunoadhesin. The cells were then washed with 2% FBS/PBS, stained with R-phycoerythrin-conjugated goat anti-human antibody (Jackson Immunoresearch, West Grove, Pa.). Next, the cells were analyzed by FACS. To test the binding of the respective immunoadhesins to the transiently transfected cells, an expression vector (pRK5-CD4; Smith et al., Science, 328:1704-1707 (1987)) for CD4 was co-transfected with PRO175 expression vector (see above). FITC-conjugated anti-CD4 (Pharmingen, San Diego, Calif.) was then used to identify and gate the transfected cell population in the FACS analysis.

B1: no binding (TNFR1 immunoadhesin [1]).

B2: no binding [2].

B3: no binding (Apo-3 immunoadhesin); no binding (TNFR1 immunoadhesin [3]); no binding (DR4 immunoadhesin). B3: no binding (CD95 immunoadhesin); no binding (DR5 immunoadhesin); no binding (TNFR2 immunoadhesin).

B4: binds [4].
